{"source": "patent US20220267415A1", "about": "(University of Texas, published 2022)", "binders": {"B1": {"name": "anti-SARS-CoV2-06 IgM (lambda-VL-kappa-CL hybrid light chain) (antibody)", "VH": "QVELQESGPGLVKPSGTLSLTCAVSGGSISSNNWWTWVRQPPGKGLEWIGEIHHSGGTNYNPSLKSRVTMSVDKSKNQFSLNLYSVTAADTAVYYCTRDRAGGTYSGFDFWGQGTLVTVSS", "VL": "QAVVTQPASVSGSPGQSITISCTGTSSDVGGYNYVSWYQQHPGKAPKLMIYDVSNRPSGVSNRFSGSKSGNTASLTISGLQAEDEADYYCSSYTSSSTVVFGGGTKVTVL", "chain": "not shown"}, "B2": {"name": "anti-SARS-CoV2-06 IgG (lambda-VL-kappa-CL hybrid light chain) (antibody, V domains shown)", "VH": "B1 VH", "VL": "B1 VL"}, "B3": {"name": "anti-SARS-CoV2-26 IgA1 (antibody)", "VH": "not shown", "VL": "QSALTQPPSASGTPGQRVTISCSGSSSNIGSNSVNWYQQVPGTAPKLLIYANDHRPSGVPDRFSGSKSGTSASLAISGLQSEDEADYYCAAWDNSLKGVVFGGGTKVTVL", "chain": "not shown"}, "B4": {"name": "anti-SARS-CoV2-26 IgA2m2 (antibody)", "VH": "not shown", "VL": "B3 VL", "chain": "not shown"}, "B5": {"name": "anti-SARS-CoV2-14 IgG (lambda-VL-kappa-CL hybrid light chain) (antibody, V domains shown)", "VH": "EVQLQQSGPGLVKPSQTLSLTCAISGDSVSSNSAAWNWIRQSPSRGLEWLGRTYYRSKWYNDYAVSVKSRITINPDTSKNQFSLQLNSVTPEDTAVYYCAREEQQLVHDYYYYGMDVWGQGTMVTVSS", "VL": "QAVVTQPASVSGSPGQSITISCTGTSSDIGAYNYISWYQQHPGKAPKLIIYEVSNRPSGISYRFSGSKSGNTASLTISGLQAEDEANYYCSSYAGSISFGGGTKVTVL"}, "B6": {"name": "anti-SARS-CoV2-14 IgA1 (antibody)", "VH": "B5 VH", "VL": "B5 VL", "chain": "not shown"}, "B7": {"name": "anti-SARS-CoV2-14 IgA2m2 (antibody)", "VH": "B5 VH", "VL": "B5 VL", "chain": "not shown"}, "B8": {"name": "anti-SARS-CoV2-14 IgG (full lambda light chain) (antibody, V domains shown)", "VH": "B5 VH", "VL": "B5 VL"}, "B9": {"name": "anti-SARS-CoV2-16 IgM (antibody)", "VH": "QVQLHQWGAGLLKPSETLSRTCAVYGGSFSGYYWTWIRQAPGKGLEWIGEINHGGSTRYNPSLESRVSISVDTSKKQFSLELRSVTAADTAIYYCARGYDTNWYGDGYNWFDPWDRGTLVTVSS", "VL": "QAVVTQPPSVSGTPGQRVTISCSGSSSSIGSNTVHWYQHLPGTAPKLLMYNNNERPSGVPARFSGSKSGTSASLVITGLQADDEAEYYCQSYDTGLSGHVFGSGTELTVL", "chain": "not shown"}, "B10": {"name": "anti-SARS-CoV2-09 IgA2m2 (antibody)", "VH": "B9 VH", "VL": "QSALTQDPSVSVALGQTVRITCQGDSLRGSFASWYRQKPGQAPVLVIFGINNRPSGVPDRFSGSSSGNTASLTITGAQAEDEADYYCNSRESNSNRILFGGGTKVTVL", "chain": "not shown"}, "B11": {"name": "anti-SARS-CoV2-09 IgA1 (antibody)", "VH": "B9 VH", "VL": "B10 VL", "chain": "not shown"}, "B12": {"name": "anti-SARS-CoV2-16 IgA2m2 (antibody)", "VH": "B9 VH", "VL": "B9 VL", "chain": "not shown"}, "B13": {"name": "anti-SARS-CoV2-16 IgA1 (antibody)", "VH": "B9 VH", "VL": "B9 VL", "chain": "not shown"}, "B14": {"name": "anti-SARS-CoV2-14 IgM (full lambda light chain) (antibody)", "heavy": "EVQLQQSGPGLVKPSQTLSLTCAISGDSVSSNSAAWNWIRQSPSRGLEWLGRTYYRSKWYNDYAVSVKSRITINPDTSKNQFSLQLNSVTPEDTAVYYCAREEQQLVHDYYYYGMDVWGQGTMVTVSSGSASAPTLFPLVSCENSPSDTSSVAVGCLAQDFLPDSITFSWKYKNNSDISSTRGFPSVLRGGKYAATSQVLLPSKDVMQGTDEHVVCKVQHPNGNKEKNVPLPVIAELPPKVSVFVPPRDGFFGNPRKSKLICQATGFSPRQIQVSWLREGKQVGSGVTTDQVQAEAKESGPTTYKVTSTLTIKESDWLSQSMFTCRVDHRGLTFQQNASSMCVPDQDTAIRVFAIPPSFASIFLTKSTKLTCLVTDLTTYDSVTISWTRQNGEAVKTHTNISESHPNATFSAVGEASICEDDWNSGERFTCTVTHTDLPSPLKQTISRPKGVALHRPDVYLLPPAREQLNLRESATITCLVTGFSPADVFVQWMQRGQPLSPEKYVTSAPMPEPQAPGRYFAHSILTVSEEEWNTGETYTCVVAHEALPNRVTERTVDKSTGKPTLYNVSLVMSDTAGTCY", "light": "QAVVTQPASVSGSPGQSITISCTGTSSDIGAYNYISWYQQHPGKAPKLIIYEVSNRPSGISYRFSGSKSGNTASLTISGLQAEDEANYYCSSYAGSISFGGGTKVTVLGQPKAAPSVTLFPPSSEELQANKATLVCLISDFYPGAVTVAWKADSSPVKAGVETTTPSKQSNNKYAASSYLSLTPEQWKSHRSYSCQVTHEGSTVEKTVAPTECS", "chain": "not shown"}}, "key": {"[1]": {"target": "T1, SARS-CoV-2 spike protein, wild type, on live virus (SARS-CoV-2-mNG / USA-WA1/2020) (SARS-CoV-2, UniProt P0DTC2 13-1273)", "test": "cell-based or functional assay"}, "[2]": {"target": "T1, SARS-CoV-2 spike protein, wild type, on …", "test": "cell-based or functional assay", "remark": "listed apart in the source"}, "[3]": {"target": "T2, recombinant SARS-CoV-2 Receptor Binding Domain (RBD) with a his tag (ATUM, Cat. 65639.1.a) (SARS-CoV-2, UniProt P0DTC2 319-541)", "test": "ELISA on coated RBD-his", "text": "Plates were then washed 5 times with 0.05% PBS-Tween and blocked with 2% BSA-PBS. […] Luminescent data were collected on an EnVision plate reader (Perkin-Elmer) and analyzed with GraphPad Prism using a 4-parameter logistic model."}, "[4]": {"target": "T1, SARS-CoV-2 spike protein, wild type, on …", "test": "cell-based or functional assay", "remark": "listed apart in the source"}, "[5]": {"target": "T1, SARS-CoV-2 spike protein, wild type, on …", "test": "cell-based or functional assay", "remark": "listed apart in the source"}, "[6]": {"target": "T1, SARS-CoV-2 spike protein, wild type, on …", "test": "cell-based or functional assay", "remark": "listed apart in the source"}, "[7]": {"target": "T1, SARS-CoV-2 spike protein, wild type, on …", "test": "cell-based or functional assay", "remark": "listed apart in the source"}, "[8]": {"target": "T2, recombinant SARS-CoV-2 Receptor Binding …"}}, "note": "Where “and” joins values, the source holds several entries; their conditions need not be identical. Equal entries are not always repeated. Where two headings read alike, the source gives them in different places."}
{"binder": "B1", "values": [{"measurement": "EC50 (neutralization of live SARS-CoV-2-mNG)", "setting": "[1]", "value": "0.06 µg/ml and 0.067 nM"}, {"measurement": "Fold change of neutralization EC50 in nM (IgM-06 against IgG-06)", "setting": "[1]", "value": 14.9, "unit": "fold"}, {"measurement": "Fold change of neutralization EC50 in µg/ml (IgM-06 against IgG-06)", "setting": "[1]", "value": 2.5, "unit": "fold"}, {"measurement": "Neutralization EC50", "setting": "[2]", "value": 0.059, "unit": "µg/mL"}]}
{"binder": "B2", "values": [{"measurement": "EC50 (neutralization of live SARS-CoV-2-mNG)", "setting": "[1]", "value": "0.15 µg/ml and 1 nM"}, {"measurement": "Neutralization EC50", "setting": "[2]", "value": 0.22, "unit": "µg/mL"}]}
{"binder": "B3", "values": [{"measurement": "EC50", "setting": "[3]", "value": 1.8, "unit": "nM"}]}
{"binder": "B4", "values": [{"measurement": "EC50", "setting": "[3]", "value": 38, "unit": "nM"}]}
{"binder": "B5", "values": [{"measurement": "Neutralization EC50", "setting": "[2]", "value": 0.39, "unit": "µg/mL"}, {"measurement": "EC50 (neutralization of live SARS-CoV-2-mNG)", "setting": "[4]", "value": "2.6 nM and 0.39 µg/ml"}]}
{"binder": "B6", "values": [{"measurement": "EC50", "setting": "[3]", "value": 1.9, "unit": "nM"}]}
{"binder": "B7", "values": [{"measurement": "EC50", "setting": "[3]", "value": 14, "unit": "nM"}]}
{"binder": "B8", "values": [{"measurement": "Neutralization EC50 (PRNT)", "setting": "[5]", "value": 0.51, "unit": "µg/mL"}, {"measurement": "Neutralization EC50 (PRNT)", "setting": "[6]", "value": 0.32, "unit": "µg/mL"}, {"measurement": "Neutralization EC50", "setting": "[7]", "value": 0.6, "unit": "µg/mL"}]}
{"binder": "B9", "values": [{"measurement": "EC50", "setting": "[3]", "value": 0.3, "unit": "nM"}, {"measurement": "EC50 (read off the curve)", "setting": "[8]", "value": "~0.3", "unit": "nM"}]}
{"binder": "B10", "values": [{"measurement": "EC50", "setting": "[3]", "value": 1.4, "unit": "nM"}]}
{"binder": "B11", "values": [{"measurement": "EC50", "setting": "[3]", "value": 1, "unit": "nM"}]}
{"binder": "B12", "values": [{"measurement": "EC50", "setting": "[3]", "value": 0.6, "unit": "nM"}, {"measurement": "EC50 (read off the curve)", "setting": "[8]", "value": "~0.6", "unit": "nM"}]}
{"binder": "B13", "values": [{"measurement": "EC50", "setting": "[3]", "value": 0.6, "unit": "nM"}, {"measurement": "EC50 (read off the curve)", "setting": "[8]", "value": "~0.5", "unit": "nM"}]}
{"binder": "B14", "values": [{"measurement": "Fold-Increase in potency of IgM over IgG", "setting": "[5]", "value": 46, "unit": "fold"}, {"measurement": "Neutralization EC50 (PRNT)", "setting": "[5]", "value": 0.011, "unit": "µg/mL"}, {"measurement": "Fold-Increase in potency of IgM over IgG", "setting": "[6]", "value": 61, "unit": "fold"}, {"measurement": "Neutralization EC50 (PRNT)", "setting": "[6]", "value": 0.0052, "unit": "µg/mL"}, {"measurement": "Neutralization EC50", "setting": "[7]", "value": 0.0046, "unit": "µg/mL"}]}
